Residue numbers refer to the chain shown, from its start. Read-outs that look alike come from different tables or passages of the source.
B1: ShAb02-Foldon (ShAb02 VNAR-KESlinker-Foldon-3c-His8-Strep) (VNAR)
VNAR: ARVDQTPQTITKETGESLTINCVLRDSNCALASTDWYRKKSGSTNEESISKGGRYVETVNSGSKSFSLRINDLTVEDSGTYRCNAWDSWETRQLKCDYDVYGGGTVVTVNK
B2: ShAb31 (MoB5-1D4) single domain VNAR (VNAR)
VNAR: ARVDQTPQTITKETGESLTINCVLRDSNCGVASTDWYRKKSGSTNEESISKGGRYVETVNSRSKSFSLRINDLTVEDSGTYRCNAWDRWETRQLNCDYDVYGGGTVVTVN
B3: ShAb01H06K (ShAb01Hole-06Knob) (bispecific antibody, V domains shown)
V domain 1: ARVDQTPRSVTKETGESLTINCVLRDSNCALSSTHWYRKKSGSTNEERILQGRRYVETVNSGSKSFSLRINDLRVEDSGTYRCKVYWGNSWQDKFCPGLGSYEYGDGTAVTVNS
V domain 2: ARVDQTPRSVTKETGESLTINCVLRDASYALGSTCWYRKKSGSTNEESISKGGRYVETVNSGSKSFSLRINDLTVEDGGTYRCGVGRGLGVGCDYPLCSYSYAACGDGTAVTVNS
B4: ShAb01-Foldon (ShAb01 VNAR-KESlinker-Foldon-3c-His8-Strep) (VNAR)
VNAR: B3 V domain 1 with S114K
B5: ShAb06H02K (ShAb06Hole-02Knob) (bispecific antibody, V domains shown)
V domain 1: B3 V domain 2
V domain 2: B1 VNAR with K111S

Assays:
[1] = target: T1, SARS-CoV-2 WA-1 Spike on pseudovirions (SARS-CoV-2, UniProt P0DTC2 14-1255); test: cell-based or functional assay
[2] = target: T1, SARS-CoV-2 WA-1 Spike on pseudovirions; test: cell-based or functional assay; remark: listed apart in the source
[3] = target: SARS-CoV-2 RBD (pCoV08, RBD-His6) (SARS-CoV-2 (Wuhan-Hu-1), UniProt P0DTC2 331-527); test: Table 1, column Specificity
SARS-CoV-2 NTD WA-1 = target: T2, SARS-CoV-2 NTD WA-1 (SARS-CoV-2, UniProt P0DTC2 14-303); test: BLI, ShAb-Fc on AHC probe, NTD analyte
T2 construct: domain: NTD

Row | Binder | pseudovirus neutralization IC50 [1] [µg/mL] | pseudovirus neutralization IC80 [1] [µg/mL] | pseudovirus neutralization IC50 [2] [µg/mL] | binding result [3] | Kd (SARS-CoV-2 NTD WA-1) [nM] | koff (SARS-CoV-2 NTD WA-1) [s⁻¹] | kon (SARS-CoV-2 NTD WA-1) [M⁻¹ s⁻¹]
1 | B1 | 0.289 | 1.77 | < 0.02 | – | – | – | –
2 | B2 | – | – | – | binds | – | – | –
3 | B3 | 0.065 | 0.763 | – | – | 104 | – | –
4 | B4 | 0.309 | 0.488 | 0.31 | – | – | – | –
5 | B5 | 0.03 | 0.206 | – | – | 74.6 | 0.0085 | 114000

From patent US20230331823A1 (HENRY M JACKSON FOUNDATION FOR THE ADVANCEMENT OF MILITARY …, published 2023)
